Where “and” joins values, the source holds several entries; their conditions need not be identical. Equal entries are not always repeated.
T1: 10-deacetylbaccatin III-10-O-acetyl transferase (TAX6) (Taxus cuspidata, UniProt Q9M6E2)
T1 construct: to amplify the putative full-length acetyl transferase gene and incorporate NdeI and XbaI restriction sites; made in house; host or cells: E. coli JM109 (pCWori+)
T1 sequence (Q9M6E2 1-440): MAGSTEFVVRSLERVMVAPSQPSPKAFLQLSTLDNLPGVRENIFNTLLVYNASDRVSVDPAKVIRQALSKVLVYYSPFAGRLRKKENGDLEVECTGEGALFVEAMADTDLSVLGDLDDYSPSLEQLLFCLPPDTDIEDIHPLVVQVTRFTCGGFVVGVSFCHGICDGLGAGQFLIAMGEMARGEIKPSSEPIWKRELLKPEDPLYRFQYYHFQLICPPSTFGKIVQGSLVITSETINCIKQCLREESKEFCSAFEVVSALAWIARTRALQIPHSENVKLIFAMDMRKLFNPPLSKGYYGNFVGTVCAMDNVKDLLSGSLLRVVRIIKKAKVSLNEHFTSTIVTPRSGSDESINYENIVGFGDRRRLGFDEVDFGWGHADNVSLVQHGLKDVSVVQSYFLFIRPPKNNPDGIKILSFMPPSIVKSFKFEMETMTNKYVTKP

T2: taxadienol acetyl transacylase (TAX1) (Taxus cuspidata, UniProt Q9M6F0)
T2 construct: Full-length insert fragments of the relevant plasmids are excised and subcloned in-frame into the expression vector pCWori+; made in house; host or cells: E. coli JM109 (pCWori+)
T2 sequence (Q9M6F0 1-439): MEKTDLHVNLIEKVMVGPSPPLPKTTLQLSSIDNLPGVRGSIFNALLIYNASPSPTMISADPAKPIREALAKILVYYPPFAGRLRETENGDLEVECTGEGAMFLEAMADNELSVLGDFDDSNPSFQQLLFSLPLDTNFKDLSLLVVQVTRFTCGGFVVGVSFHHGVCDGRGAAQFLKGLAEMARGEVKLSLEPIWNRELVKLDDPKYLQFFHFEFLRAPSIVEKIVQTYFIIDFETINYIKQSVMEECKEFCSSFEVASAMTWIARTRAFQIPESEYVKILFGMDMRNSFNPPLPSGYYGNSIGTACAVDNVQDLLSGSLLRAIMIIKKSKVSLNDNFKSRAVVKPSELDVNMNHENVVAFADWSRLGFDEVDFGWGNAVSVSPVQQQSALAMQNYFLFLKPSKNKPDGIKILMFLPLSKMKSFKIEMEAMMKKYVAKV


Legend:
[1] = molecular target: T1, 10-deacetylbaccatin III-10-O-acetyl transferase (TAX6); type: biochemical
Experimental: For the enzyme preparation, E. coli cells transformed with the pCWori+ vector harboring the putative DBAT gene were grown overnight at 37° C. in 5 mL Luria-Bertani medium supplemented with ampicillin, and 1 mL of this inoculum was added to and grown in 100 mL Terrific Broth culture medium (6 g bacto-tryptone, Difco Laboratories, Spark, Md., 12 g yeast extract, EM Science, Cherryhill, N.J., and 2 mL gycerol in 500 mL water) supplemented with 1 mM IPTG, 1 mM thiamine HCl and 50 μg ampicillin/mL. After 24 hours, the bacteria were harvested by centrifugation, resuspended in 20 mL of assay buffer (25 mM Mopso, pH 7.4) and then disrupted by sonication at 0–4° C. The resulting homogenate was centrifuged at 15,000 g to remove debris, and a 1 mL aliquot of the supernatant was incubated with 10-deacetylbaccatin III (400 μM) and [2-^3H]acetyl coenzyme A (0.45μCi, 400 μM) for 1 hour at 31° C. The reaction mixture was extracted with ether and the solvent concentrated in vacuo. The crude product (pooled from five such assays) was purified by silica gel thin-layer chromatography (TLC; 70:30 ethyl acetate:hexane).
The activity of TAX6 (SEQ ID NO: 45) was assayed under standard conditions described in Walker et al., Arch. Biochem. Biophys.

[2] = molecular target: T2, taxadienol acetyl transacylase (TAX1); assay: recombinant TAX1 expressed in E. coli JM109, taxadienol acetyl transacylase assay; type: biochemical; details: cell-free extract, radiochemical analysis
Experimental: To determine the identity of the putative taxadienol acetyl transacylase, TAX1 (SEQ ID NO: 28), TAX2 (SEQ ID NO: 26), and TAX6 (SEQ ID NO: 45) were subcloned in-frame into the expression vector pCWori+ (Barnes, Methods Enzymol. 272:3–14, 1996) and expressed in E. coli JM109 cells. The transformed bacteria were cultured and induced with isopropyl β-D-thiogalactoside (IPTG), and cell-free extracts were prepared and evaluated for taxadienol acetyl transacylase activity using the previously developed assay procedures (Walker et al., Arch. Biochem. Biophys. 364:273–279, 1999). Clone TAX1 (corresponding directly to Probe 1) expressed high levels of taxadienol acetyl transacylase activity (20% conversion of substrate to product), as determined by radiochemical analysis; the product of this recombinant enzyme was confirmed as taxadienyl-5α-yl acetate by gas chromatography-mass spectrometry (GC-MS) (FIGS. 5A–5G). […] Neither of the recombinant proteins expressed from TAX1 (SEQ ID NO: 28) or TAX2 (SEQ ID NO: 26) was capable of acetylating the advanced paclitaxel precursor 10-deacetyl baccatin III to baccatin III. […]

Molecule	optimum pH [1]	pH at half-maximal velocities [1]	taxadienol acetyl transacylase activity (conversion of substrate to product) [2]
TAX6: full-length clone, SEQ ID NO: 44/45; 10-deacetylbaccatin III-10-O-acetyl transferase (protein, listed as Taxus cuspidata) MAGSTEFVVRSLERVMVAPSQPSPKAFLQLSTLDNLPGVRENIFNTLLVYNASDRVSVDPAKVIRQALSKVLVYYSPFAGRLRKKENGDLEVECTGEGALFVEAMADTDLSVLGDLDDYSPSLEQLLFCLPPDTDIEDIHPLVVQVTRFTCGGFVVGVSFCHGICDGLGAGQFLIAMGEMARGEIKPSSEPIWKRELLKPEDPLYRFQYYHFQLICPPSTFGKIVQGSLVITSETINCIKQCLREESKEFCSAFEVVSALAWIARTRALQIPHSENVKLIFAMDMRKLFNPPLSKGYYGNFVGTVCAMDNVKDLLSGSLLRVVRIIKKAKVSLNEHFTSTIVTPRSGSDESINYENIVGFGDRRRLGFDEVDFGWGHADNVSLVQHGLKDVSVVQSYFLFIRPPKNNPDGIKILSFMPPSIVKSFKFEMETMTNKYVTKP	7.5	6.4 and 7.8	
TAX1: full-length clone, SEQ ID NO: 27/28; encodes Taxus taxadienol acetyl transacylase (protein) MEKTDLHVNLIEKVMVGPSPPLPKTTLQLSSIDNLPGVRGSIFNALLIYNASPSPTMISADPAKPIREALAKILVYYPPFAGRLRETENGDLEVECTGEGAMFLEAMADNELSVLGDFDDSNPSFQQLLFSLPLDTNFKDLSLLVVQVTRFTCGGFVVGVSFHHGVCDGRGAAQFLKGLAEMARGEVKLSLEPIWNRELVKLDDPKYLQFFHFEFLRAPSIVEKIVQTYFIIDFETINYIKQSVMEECKEFCSSFEVASAMTWIARTRAFQIPESEYVKILFGMDMRNSFNPPLPSGYYGNSIGTACAVDNVQDLLSGSLLRAIMIIKKSKVSLNDNFKSRAVVKPSELDVNMNHENVVAFADWSRLGFDEVDFGWGNAVSVSPVQQQSALAMQNYFLFLKPSKNKPDGIKILMFLPLSKMKSFKIEMEAMMKKYVAKV			20%

Source: US7153676B1, “Transacylases of the paclitaxel biosynthetic pathway” (priority 1999, dated 2006)
